Source: patent US20260125454A1 (SHANGHAI JUNSHI BIOSCIENCES, published 2026)

T1: Biotin-huCGRPaSA (human, not fully specified; biotin (position not given))
T1 construct: exact construct ('aSA') not explained; also called Biotin CGRPaSA; full-length (1-37) CGRP
T1 peptide: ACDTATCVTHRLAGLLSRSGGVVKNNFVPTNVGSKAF


Target: T1, Biotin-huCGRPaSA
Experiment: ELISA, supernatant; relative to chimeric C245
Method in brief: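 Plates coated with biotin-CGRPaSA at 1.0 μg/mL (90 min, 37°C) and blocked with 2% BSA. Humanized antibodies and chimeric C245 reference, 2.5-fold serial dilutions from 1000 ng/mL, bound 60 min at 37°C. Detection by HRP anti-human IgG (Fc), TMB 15 min, read at 450/620 nm.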

Binder	Relative binding activity, %
hu218 (antibody, V domains shown, 3H10 HC-2/2B8 LC2-2) VH: QVQLVQSGAEVKKPGASVKVSCKASGYTFTDYNMHWVRQAPGQGLEWMGYIYPYNGHTVYNQKFRNRVTLTVDTSSSTAYMELRSLRSDDTAVYYCAREGLGGYWGQGTLVTVSS VL: DVQLTQSPSFLSASVGDRVTITCQASQNIDGNTYMNWYQQKPGKAPKVLIYSIFNLESGVPSRFSGSGSGTEFTLTISSLQPEDFATYYCQQSNDYPYTFGQGTKLEIK	24%
hu114 (antibody, V domains shown, 2B8 HC1-1/2B8 LC2-2) VH: QVQLVQSGAEVKKPGASVKVSCKASGYTFTDYNMHWVRQAPGQGLEWMGNIYPYNGGTVYNQKFNNRVTLTVDTSSSTAYMELSRLRSDDTAVYYCAREGLGGYWGQGTLVTVSS VL: DVQLTQSPSFLSASVGDRVTITCQASQNIDGNTYMNWYQQKPGKAPKVLIYSIFNLESGVPSRFSGSGSGTEFTLTISSLQPEDFATYYCQQSNDYPYTFGQGTKLEIK	41%
hu88 (antibody, V domains shown, 1F5 HC-5/2B8 LC2-2) VH: QVQLVQSGAEVKKPGASVKVSCKASGYTFIDFNMHWVRQAPGQRLEWMGYIYPYNADVVYNQDFTNRVTLTVDTSSSTAYMELSSLRSEDTAVYYCAREGLGGYWGQGTLVTVSS VL: DVQLTQSPSFLSASVGDRVTITCQASQNIDGNTYMNWYQQKPGKAPKVLIYSIFNLESGVPSRFSGSGSGTEFTLTISSLQPEDFATYYCQQSNDYPYTFGQGTKLEIK	93%
hu23 (antibody, V domains shown, 1B2 HC-2/2B8 LC2-2) VH: QVQLVQSGAEVKKPGASVKVSCKASGYTFTDYNMHWVRQAPGQRLEWMGYIFPYNGVAVYNRKFRSRVTLTVDTSSSTAYMELSSLRSEDTAVYYCAREGLGGYWGQGTLVTVSS VL: DVQLTQSPSFLSASVGDRVTITCQASQNIDGNTYMNWYQQKPGKAPKVLIYSIFNLESGVPSRFSGSGSGTEFTLTISSLQPEDFATYYCQQSNDYPYTFGQGTKLEIK	17%
hu101 (antibody, V domains shown, 2A2 HC-1/2B8 LC2-2) VH: QVQLVQSGAEVKKPGASVKVSCKASGYTFTDYNMHWVRQAPGQRLEWMGYVYPYNGGSAYNQKFKSRVTLTVDTSSSTAYMELSSLRSEDTAVYYCAREGLGGYWGQGTLVTVSS VL: DVQLTQSPSFLSASVGDRVTITCQASQNIDGNTYMNWYQQKPGKAPKVLIYSIFNLESGVPSRFSGSGSGTEFTLTISSLQPEDFATYYCQQSNDYPYTFGQGTKLEIK	48%
hu10 (antibody, V domains shown, 1B2 HC-1/2B8 LC2-2) VH: QVQLVQSGAEVKKPGASVKVSCKASGYTFTDYNMHWVRQAPGQGLEWMGYIFPYNGVAVYNRKFRSRVTLTIDTSSSTAYMELRSLRSDDTAVYYCAREGLGGYWGQGTLVTVSS VL: DVQLTQSPSFLSASVGDRVTITCQASQNIDGNTYMNWYQQKPGKAPKVLIYSIFNLESGVPSRFSGSGSGTEFTLTISSLQPEDFATYYCQQSNDYPYTFGQGTKLEIK	14%
hu49 (antibody, V domains shown, 1F5 HC-2/2B8 LC2-2) VH: QVQLVQSGAEVKKPGASVKVSCKASGYTFTDFNMHWVRQAPGQRLEWMGYIYPYNGDVVYNQNFTNRVTLTVDTSSSTAYMELSSLRSEDTAVYYCAREGLGGYWGQGTLVTVSS VL: DVQLTQSPSFLSASVGDRVTITCQASQNIDGNTYMNWYQQKPGKAPKVLIYSIFNLESGVPSRFSGSGSGTEFTLTISSLQPEDFATYYCQQSNDYPYTFGQGTKLEIK	60%
hu36 (antibody, V domains shown, 1F5 HC-1/2B8 LC2-2) VH: QVQLVQSGAEVKKPGASVKVSCKASGYTFIDFNMHWVRQAPGQRLEWMGYIYPYNGDVVYNQNFTNRVTLTVDTSSSTAYMELSSLRSEDTAVYYCAREGLGGYWGQGTLVTVSS VL: DVQLTQSPSFLSASVGDRVTITCQASQNIDGNTYMNWYQQKPGKAPKVLIYSIFNLESGVPSRFSGSGSGTEFTLTISSLQPEDFATYYCQQSNDYPYTFGQGTKLEIK	40%
hu62 (antibody, V domains shown, 1F5 HC-3/2B8 LC2-2) VH: QVQLVQSGAEVKKPGASVKVSCKASGYTFTDFNMHWVRQAPGQGLEWMGYIYPYNGDVVYNQNFTNRVTLTVDTSSSTAYMELRSLRSDDTAVYYCAREGLGGYWGQGTLVTVSS VL: DVQLTQSPSFLSASVGDRVTITCQASQNIDGNTYMNWYQQKPGKAPKVLIYSIFNLESGVPSRFSGSGSGTEFTLTISSLQPEDFATYYCQQSNDYPYTFGQGTKLEIK	15%

Next, values leading:

Relative binding activity, %	Binder
15%	hu192 (antibody, V domains shown, 3E5 HC-4/2B8 LC2-2) VH: QVQLVQSGAEVKKPGASVKVSCKTSGYTFTDYNMHWVRQAPGQRLEWMGYISPYNAGTAYNQKFKFRVTLTVDTSSSTAYMELSSLRSEDTAVYYCAREGLGGYWGQGTLVTVSS VL: DVQLTQSPSFLSASVGDRVTITCQASQNIDGNTYMNWYQQKPGKAPKVLIYSIFNLESGVPSRFSGSGSGTEFTLTISSLQPEDFATYYCQQSNDYPYTFGQGTKLEIK
24%	hu127 (antibody, V domains shown, 2B8 HC1-2/2B8 LC2-2) VH: QVQLVQSGAEVKKPGASVKVSCKASGYTFTDYNMHWVRQAPGQGLEWMGNIYPYNGGTVYNQKFNNRVTLTVDTSSSTAYMELRSLRSDDTAVYYCAREGLGGYWGQGTLVTVSS VL: DVQLTQSPSFLSASVGDRVTITCQASQNIDGNTYMNWYQQKPGKAPKVLIYSIFNLESGVPSRFSGSGSGTEFTLTISSLQPEDFATYYCQQSNDYPYTFGQGTKLEIK
56%	hu153 (antibody, V domains shown, 3E5 HC-1/2B8 LC2-2) VH: QVQLVQSGAEVKKPGASVKVSCKTSGYTFTDYNMHWVRQAPGQRLEWMGYISPYNGGTAYNQKFKFRVTLTVDTSSSTAYMELSSLRSEDTAVYYCAREGLGGYWGQGTLVTVSS VL: DVQLTQSPSFLSASVGDRVTITCQASQNIDGNTYMNWYQQKPGKAPKVLIYSIFNLESGVPSRFSGSGSGTEFTLTISSLQPEDFATYYCQQSNDYPYTFGQGTKLEIK
26%	hu205 (antibody, V domains shown, 3H10 HC-1/2B8 LC2-2) VH: QVQLVQSGAEVKKPGASVKVSCKASGYTFTDYNMHWVRQAPGQGLEWMGYIYPYNGHTVYNQKFRNRVTMTVDTSSSTAYMELRSLRSDDTAVYYCAKEGLGGYWGQGTLVTVSS VL: DVQLTQSPSFLSASVGDRVTITCQASQNIDGNTYMNWYQQKPGKAPKVLIYSIFNLESGVPSRFSGSGSGTEFTLTISSLQPEDFATYYCQQSNDYPYTFGQGTKLEIK
77%	hu179 (antibody, V domains shown, 3E5 HC-3/2B8 LC2-2) VH: QVQLVQSGAEVKKPGASVKVSCKASGYTFTDYNMHWVRQAPGQGLEWMGYISPYNGGTAYNQKFKFRVTLTVDTSSSTAYMELSRLRSDDTVVYYCAREGLGGYWGQGTLVTVSS VL: DVQLTQSPSFLSASVGDRVTITCQASQNIDGNTYMNWYQQKPGKAPKVLIYSIFNLESGVPSRFSGSGSGTEFTLTISSLQPEDFATYYCQQSNDYPYTFGQGTKLEIK
19%	hu166 (antibody, V domains shown, 3E5 HC-2/2B8 LC2-2) VH: QVQLVQSGAEVKKPGASVKVSCKASGYTFTDYNMHWVRQAPGQRLEWMGYISPYNGGTAYNQKFKFRVTLTVDTSSSTAYMELSSLRSEDTAVYYCAREGLGGYWGQGTLVTVSS VL: DVQLTQSPSFLSASVGDRVTITCQASQNIDGNTYMNWYQQKPGKAPKVLIYSIFNLESGVPSRFSGSGSGTEFTLTISSLQPEDFATYYCQQSNDYPYTFGQGTKLEIK
47%	hu140 (antibody, V domains shown, 2B8 HC1-3/2B8 LC2-2) VH: QVQLVQSGAEVKKPGASVKVSCKASGYTFTDYNMHWVRQAPGQGLEWMGNIYPYNAGTVYNQKFNNRVTLTVDTSSSTAYMELSRLRSDDTAVYYCAREGLGGYWGQGTLVTVSS VL: DVQLTQSPSFLSASVGDRVTITCQASQNIDGNTYMNWYQQKPGKAPKVLIYSIFNLESGVPSRFSGSGSGTEFTLTISSLQPEDFATYYCQQSNDYPYTFGQGTKLEIK
